For 1 substance, inhibition of IL-17A induced IL-6 production in NHDF cells, IC50 results are on record in patent US20170307628A1.

This experiment deals with recombinant human IL-17A (human) (UniProt Q16552). Briefly: cell-based or functional assay.
Sequence of recombinant human IL-17A (human) (Q16552 20-155 limits assumed): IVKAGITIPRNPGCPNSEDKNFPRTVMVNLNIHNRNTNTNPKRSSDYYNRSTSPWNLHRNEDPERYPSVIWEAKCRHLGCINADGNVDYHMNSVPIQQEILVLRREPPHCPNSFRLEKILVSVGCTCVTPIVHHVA

Turning to “human IL-17A receptor-Fc chimera (from UniProt Q96F46 33-320) (Fc fusion)”, the inhibition of IL-17A induced IL-6 production in NHDF cells, IC50 amounted to 1 nM.
